Data reported in publication PMC6407594.

Substrate: NCCCNCCCCNCCCN
Experiment: purified protein, by the assay type
Settings: other: compound as substrate, Hepes 50 mM, pH 7.5, 37 °C

B1: murine SMOX (Mus musculus) (protein)
chain: MQSCESSGDSADDPLSRGLRRRGQPRVVVIGAGLAGLAAARALLEQGFTDVTVLEASSHIGGRVQSVRLGDTTFELGATWIHGSHGNPIYQLAEANGLLEETTDGERSVGRISLYSKNGVACYLTNRGCRIPKDVVEEFSDLYNEVYNMTQEFFRHGKPVNAESQNSVGVFTREKVRNRIRDDPDDTEATKRLKLAMIQQYLKVESCESSSHSIDEVSLSAFGEWTEIPGAHHIIPSGFMRVVELLAEGIPPHVIQLGKPVRCIHWDQASAHPRGPEIEPRGEGDHNHDTGEGGQSGENPQQGRWDEDEPWPVVVECEDCEVIPADHVIVTVSLGVLKRQYTSFFRPCLPTEKVAAIHRLGIGTTDKIFLEFEEPFWGPECNSLQFVWEDEAESCTLTYPPELWYRKICGFDVLYPPERYGHVLSGWICGEEALVMERCDDEAVAEICTEMLRQFTGNPNIPKPRRILRSAWGSNPYFRGSYSYTQVGSSGADVEKLAKPLPYTESSKTAPMQVLFSGEATHRKYYSTTHGALLSGQREAARLIEMYRDLFQQGP
Km: 495 µM
